From article PMC7532178, “Interaction of protocadherin-15 with the scaffold protein whirlin supports its anchoring of hair-bundle lateral links in cochlear hair cells” (Scientific Reports, 2020) come the findings set out here.

For experiment [1], the target named is PCDH15-CD3 C-terminal peptide (biotin-TTDS-…) (mouse). Put plainly: SPR; harmonin fragments or full-length harmonin-a1 with C-terminal peptides; Fig. S10 and data not shown. A general note: Surface plasmon resonance follows binding to a sensor surface in real time, without labels.
The target in experiment [2] is PCDH15-CD1 C-terminal peptide (biotin-TTDS-…) (mouse). The experiment is described as above.
Experiment [3] deals with PCDH15-CD2 C-terminal peptide (biotin-TTDS-…) (mouse). The experiment is described as above.
The target of experiment [4] is T1, PCDH15-CD3 C-terminal peptide (biotin-TTDS-MGPWNSLHIPMTKL) (mouse).
T1 construct: C-terminal 14 aa of protocadherin-15 isoform CD3, including the PBM; source: synthetic peptide (Eurogentec); not shown: biotin, N-terminal, kept
T1 peptide: {Biotin-TTDS}-MGPWNSLHIPMTKL
The description is as above. The conditions noted are these: both partners purified.

Experiment [5] addresses T2, PCDH15-CD1 C-terminal peptide (biotin-TTDS-GIDVQPHSQSTSL) (mouse).
T2 construct: C-terminal 13 aa of protocadherin-15 isoform CD1, including the PBM; source: synthetic peptide (Eurogentec); not shown: biotin, N-terminal, kept
T2 peptide: {Biotin-TTDS}-GIDVQPHSQSTSL
Described as above. The following applies: both partners purified.

Experiment [6] deals with T3, PCDH15-CD2 C-terminal peptide (biotin-TTDS-GANSEQYNTAL) (mouse).
T3 construct: C-terminal 11 aa of protocadherin-15 isoform CD2, including the PBM; source: synthetic peptide (Eurogentec); not shown: biotin, N-terminal, kept
T3 peptide: {Biotin-TTDS}-GANSEQYNTAL
Described as above. The conditions noted are these: both partners purified.

Experiment [7] deals with T4, whirlin-NTR-PDZ1-Hp1 (aa residues 2-265) (mouse, UniProt Q80VW5-1 2-265).
T4 construct: extra 7 aa at the N-terminus of all recombinant proteins of the study; whirlin (long isoform, L-whirlin), residues 2-265: NTR (with HHD1), PDZ1 and hairpin Hp1; The methods call the 2-265 construct whirlin-NTR-PDZ1; also called NTR-PDZ1-Hp1 whirlin fragment; Nter-PDZ1-Hp1; source: E. coli BL21 (DE3) codonPlus-RIPL, purified (Glutathione Sepharose 4B, GST removed by TEV proteinase, SEC)
T4 sequence: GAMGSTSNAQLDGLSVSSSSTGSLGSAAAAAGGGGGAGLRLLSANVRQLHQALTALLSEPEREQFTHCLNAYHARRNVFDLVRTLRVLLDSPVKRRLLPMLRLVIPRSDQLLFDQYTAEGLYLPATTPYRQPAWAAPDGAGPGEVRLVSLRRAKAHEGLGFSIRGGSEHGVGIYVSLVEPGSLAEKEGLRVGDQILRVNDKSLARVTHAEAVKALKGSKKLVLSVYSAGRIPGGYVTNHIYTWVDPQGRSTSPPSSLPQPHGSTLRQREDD
Put plainly: SPR; ProteOn XPR 36; N-terminally biotinylated peptides captured on a Neutravidin NLC sensor chip, whirlin fragments flowed as analytes at 20 μL/min for 2 min; 250 mM NaCl, 50 mM Tris pH 7.5, 0.5 mM TCEP; steady-state fit Req = (Rmax*C)/(Kd+C); mean of three experiments; Figure 4B shows the responses at 10 μM. The following applies: both partners purified.

Experiment [8] has as its target T5, whirlin-HHD1 (aa residues 30-121) (mouse, UniProt Q80VW5-1 30-121).
T5 construct: extra 7 aa at the N-terminus of all recombinant proteins of the study; whirlin, residues 30-121: harmonin-homology domain 1 (HHD1); also called HHD1 domain alone; source: E. coli BL21 (DE3) codonPlus-RIPL, purified (Glutathione Sepharose 4B, GST removed by TEV proteinase, SEC)
T5 sequence: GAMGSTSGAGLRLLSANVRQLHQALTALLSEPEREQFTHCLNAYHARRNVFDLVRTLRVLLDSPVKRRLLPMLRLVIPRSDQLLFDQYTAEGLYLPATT
The experiment is described as above. The conditions noted are these: both partners purified.

The target in experiment [9] is T6, whirlin-PDZ2 (aa residues 272-368) (mouse, UniProt Q80VW5-1 272-368).
T6 construct: extra 7 aa at the N-terminus of all recombinant proteins of the study; whirlin, residues 272-368: PDZ2 domain; source: E. coli BL21 (DE3) codonPlus-RIPL, purified (Glutathione Sepharose 4B, GST removed by TEV proteinase, SEC)
T6 sequence: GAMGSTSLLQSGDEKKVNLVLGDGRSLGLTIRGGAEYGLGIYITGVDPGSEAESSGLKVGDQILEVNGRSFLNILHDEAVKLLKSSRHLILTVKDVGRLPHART
The description is as above. The following applies: both partners purified.

Experiment [10] addresses T7, whirlin PDZ1-Hp (aa residues 137-246) (mouse, UniProt Q80VW5-1 137-246).
T7 construct: extra 7 aa at the N-terminus of all recombinant proteins of the study; whirlin, residues 137-246: PDZ1 with its hairpin extension Hp1; also called PDZ1 + Hp1; whirlin PDZ1-Hp1 fragment
T7 sequence: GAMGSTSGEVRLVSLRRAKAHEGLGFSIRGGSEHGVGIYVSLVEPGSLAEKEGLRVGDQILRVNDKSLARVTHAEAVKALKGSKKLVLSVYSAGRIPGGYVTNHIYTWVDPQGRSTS
The experiment is described as above. The following applies: both partners purified.

Experiment [11] addresses T4, whirlin-NTR-PDZ1-Hp1 (aa residues 2-265). Described as above. The following applies: both partners purified. This is another data set of the same source.
Experiment [12] addresses T8, whirlin-PDZ1 (aa residues 137-228) (mouse, UniProt Q80VW5-1 137-228).
T8 construct: extra 7 aa at the N-terminus of all recombinant proteins of the study; whirlin, residues 137-228: PDZ1 domain; also called whirlin PDZ1 domain alone; source: E. coli BL21 (DE3) codonPlus-RIPL, purified (Glutathione Sepharose 4B, GST removed by TEV proteinase, SEC)
T8 sequence: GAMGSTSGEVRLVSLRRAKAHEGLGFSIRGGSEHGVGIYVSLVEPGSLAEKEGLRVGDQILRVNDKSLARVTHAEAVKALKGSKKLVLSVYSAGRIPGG
The experiment is described as above. The following applies: both partners purified.

Experiment [13] addresses T9, whirlin-PDZ3 (aa residues 821-915) (mouse, UniProt Q80VW5-1 821-915).
T9 construct: extra 7 aa at the N-terminus of all recombinant proteins of the study; whirlin, residues 821-915: PDZ3 domain, common to L- and S-whirlin; also called whirlin PDZ3 domain
T9 sequence: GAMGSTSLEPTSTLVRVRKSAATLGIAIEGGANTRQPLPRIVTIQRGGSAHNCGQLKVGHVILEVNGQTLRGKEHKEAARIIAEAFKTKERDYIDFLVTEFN
Described as above. The conditions noted are these: both partners purified.

For experiment [14], the target named is T10, whirlin-NTR (aa residues 2-147) (mouse, UniProt Q80VW5-1 2-147).
T10 construct: extra 7 aa at the N-terminus of all recombinant proteins of the study; also called entire NTR of whirlin (containing the HHD1 domain); source: E. coli BL21 (DE3) codonPlus-RIPL, purified (Glutathione Sepharose 4B, GST removed by TEV proteinase, SEC)
T10 sequence: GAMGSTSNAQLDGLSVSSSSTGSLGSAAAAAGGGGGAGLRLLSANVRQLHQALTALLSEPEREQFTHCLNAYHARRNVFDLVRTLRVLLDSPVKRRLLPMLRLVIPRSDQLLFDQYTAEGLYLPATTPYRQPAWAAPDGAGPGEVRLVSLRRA
The description is as above. The following applies: both partners purified.

In experiment [15] the target is T11, CDH23 C-terminal peptide (Mus musculus, UniProt Q99PF4).
T11 chain: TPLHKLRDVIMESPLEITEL

No end group written: not given here. *: point of attachment. Biotin = O=C1N[C@H]2[C@H](CS[C@H]2CCCCC(=O)*)N1; TTDS = trioxatridecan-succinamic acid spacer Bounds are passed on as bounds.

As a reminder, the Kd is the constant that tells how readily two partners part at equilibrium. Low readings indicate a tighter complex, high ones a looser complex. For “PDZ domains of harmonin in tandem association”, the Kd in experiment [1], in [2] and in [3] was greater than 200 µM in each case.

B1: full-length harmonin-a1 (natural protein)
chain: MDRKVAREFRHKVDFLIENDAEKDYLYDVLRMYHQTMDVAVLVGDLKLVINEPNRLPLFDAIRPLIPLKHQVEYDQLTPRRSRKLKEVRLDRLHPEGLGLSVRGGLEFGCGLFISHLIKGGQADSVGLQVGDEIVRINGYSISSCTHEEVINLIRTKKTVSIKVRHIGLIPVKSSPEESLKWQYVDQFVSESGGVRGGLGSPGNRTTKEKKVFISLVGSRGLGCSISSGPIQKPGIFVSHVKPGSLSAEVGLETGDQIVEVNGIDFTNLDHKEAVNVLKSSRSLTISIVAGAGRELFMTDRERLEEARQRELQRQELLMQKRLAMESNKILQEQQEMERQRRKEIAQKAAEENERYRKEMEQISEEEEKFKKQWEEDWGSKEQLILPKTITAEVHPVPLRKPKSFGWFYRYDGKFPTIRKKAKEKKKAKYDSLQDLRKNKKELEFEQKLYKEKEEMLEKEKQLKINRLAQEVSETEREDLEESEKTQYWVERLCQTRLEQISSAENEIPEMTTGPPPPPPSVSPLAPPLRRFAGGIHLHTTDLDDIPLDMFYYPPKTPSALPVMPHPPSVNSPSKVPAPPVLPSSGHVSSSSSPWVQRTPPPIPIPPPPSIPTQDLTPTRPLPSALEEALGNHPFRTGDPGHPADDWEANTHSGKPSSSPTTERSFPPAPKTFCPSPQPPRGPGVSTISKPVMVHQEHNFVYRPAVKSEVLPQEMLKRMVVYQTAFRQDFRKYEEGFDPYSMFSPEQIAGKDVRLLRIKKEGSLDLALEGGVDSPVGKVVVSAVYEGGAAERHGGVVKGDEIMAINGKIVTDYTLAEAEAALQKAWNQGGDWIDLVVAVCPPKEYDDELSSLPSSAAESPQLARKQLEAYEPVCRHGFFLQLEPTNLLLKSRERNQTDPSWRPASSAPSP
With B1, the equilibrium dissociation constant (Kd) in [4], in experiment [5] and in experiment [6] was greater than 200 µM each time.

B2: harmonin-PDZ3 (aa residues 738-849) (domain or fragment)
chain: DPYSMFSPEQIAGKDVRLLRIKKEGSLDLALEGGVDSPVGKVVVSAVYEGGAAERHGGVVKGDEIMAINGKIVTDYTLAEAEAALQKAWNQGGDWIDLVVAVCPPKEYDDEL
Take B2: the Kd in experiment [4], in [5] and in [6] was greater than 200 µM throughout.

B3: CDH23 C-terminal peptide (biotin-TTDS-VIMESPLEITEL) (peptide)
peptide: {Biotin-TTDS}-VIMESPLEITEL
notes: C-terminal residues of cadherin-23, including the PBM; source: synthetic peptide (Eurogentec); not shown: biotin, N-terminal, kept
With B3, the Kd is roughly 20 µM in experiment [7]; greater than 1000 µM in experiment [8]; greater than 1000 µM in experiment [9]; 64 µM in experiment [10]; 11.3 µM in experiment [11]; 141 µM in [12]. The Kd was 4.3 µM in experiment [13] and greater than 1000 µM in experiment [14].

B4: whirlin PDZ3 (protein)
chain: TSTLVRVRKSAATLGIAIEGGANTRQPLPRIVTIQRGGSAHNCGQLKVGHVILEVNGQTLRGKEHKEAARIIAEAFKTKERDYIDFLVTE
Molecule B4 gave a Kd in experiment [15] of roughly 4 µM.
